Source: US20240174992A1 (PROMEGA, published 2024)

Columns and labels:
[1] = biological target: T1, HaloTag[22-297](Q145H+P154R); assay: apparent affinity from peptide titration of the large fragment in E. coli lysate, JF646 fluorescence complementation; signal approaches saturation
T1 construct: also called LgHT variant

[2] = biological target: HaloTag[22-297](Q145H+P154R)-6×His; assay: purified system, 80 nM large fragment, peptide titration, TMR ligand
HaloTag[22-297](M2F) = biological target: T2, HaloTag[22-297](M2F); assay: apparent affinity from peptide titration (up to 1 mM) of the large fragment in E. coli lysate, JF646 fluorescence complementation; signal did not saturate
T2 construct: also called LgHT (M2F variant); Large HaloTag
T2 sequence (chain, as listed by the source): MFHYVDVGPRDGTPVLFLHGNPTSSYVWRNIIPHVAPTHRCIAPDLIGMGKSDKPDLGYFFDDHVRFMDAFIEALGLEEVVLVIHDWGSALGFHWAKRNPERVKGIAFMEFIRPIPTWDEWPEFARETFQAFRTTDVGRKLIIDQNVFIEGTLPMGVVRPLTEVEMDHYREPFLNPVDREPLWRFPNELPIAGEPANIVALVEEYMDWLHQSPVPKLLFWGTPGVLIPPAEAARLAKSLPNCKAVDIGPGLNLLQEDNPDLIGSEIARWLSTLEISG

T1 sequence (chain, as listed by the source Q145H P154R Q145H P154R): as the sequence (chain, as listed by the source) above, with F2M, Q145H, P154R counted along it
Chain of HaloTag[22-297](Q145H+P154R)-6×His (chain, as listed by the source Q145H P154R Q145H P154R): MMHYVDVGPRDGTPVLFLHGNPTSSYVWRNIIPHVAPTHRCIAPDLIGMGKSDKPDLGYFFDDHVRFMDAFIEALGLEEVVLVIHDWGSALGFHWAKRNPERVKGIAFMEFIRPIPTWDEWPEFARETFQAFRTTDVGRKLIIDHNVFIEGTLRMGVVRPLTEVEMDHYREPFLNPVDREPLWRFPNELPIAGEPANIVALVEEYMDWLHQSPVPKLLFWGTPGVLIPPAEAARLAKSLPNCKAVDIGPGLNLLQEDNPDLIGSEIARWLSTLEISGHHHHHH

For EIGTGFPFDPHYVEVLG (also called HT(3-19); SmHT) [synthetic HaloTag[3-19] peptide], the Kd [1] was about 1000 nM, the binding result [2] was “binds” and the Kd (HaloTag[22-297](M2F)) was over 100000 nM.
